Molecular target: thermostable exoshell tES(+)F116H
Experiment: AUC

- stoichiometry N (HRP molecules per tES shell): 2
Substance: horseradish peroxidase (from UniProt P00433 31-338) (enzyme)
